Measurements as given in patent US20150266962A1 (Pfizer, published 2015).

Columns and labels:
[1] = biological target: T1, recombinant human IL-13 receptor alpha 2 (hIL-13-Rα2) (human, UniProt Q14627 27-343); test: SPR Biacore T100, pH 6.0
T1 construct: Recombinant soluble antigen coated on ELISA plates or used in Biacore; also called rec hIL-13Rα2; rhIL-13Rα2
T1 sequence (looked up): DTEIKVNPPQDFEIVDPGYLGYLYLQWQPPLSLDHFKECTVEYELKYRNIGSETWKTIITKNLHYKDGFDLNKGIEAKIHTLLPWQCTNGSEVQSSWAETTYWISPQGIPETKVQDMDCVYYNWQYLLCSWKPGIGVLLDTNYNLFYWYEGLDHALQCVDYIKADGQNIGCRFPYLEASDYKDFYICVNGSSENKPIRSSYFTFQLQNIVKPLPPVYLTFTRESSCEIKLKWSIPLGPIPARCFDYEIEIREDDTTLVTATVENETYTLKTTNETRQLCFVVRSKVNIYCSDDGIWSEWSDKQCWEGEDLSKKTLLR
Experimental: (§1) To assess the binding kinetics of the ch07 and ch08 antibodies, SPR (Surface Plasmon Resonance) experiments were conducted on a Biacore® T100 or T200 instrument using a Biacore® human Fab Capture Kit (GE Healthcare). All data was analyzed using the Biacore® T100 evaluation software version 2.0 with a 1:1 Langmuir binding model.

[2] = biological target: T1, recombinant human IL-13 receptor alpha …; test: SPR Biacore T100, pH 7.4
Experimental: as §1

[3] = biological target: T1, recombinant human IL-13 receptor alpha …; test: direct ELISA on coated recombinant hIL-13-Rα2
Experimental: Humanized hu08 binding to recombinant hIL-13-Rα2 was evaluated by a standard direct ELISA. Recombinant hIL-13-Rα2 was coated onto a 96-well plate. Serially diluted chimeric antibodies or humanized antibodies in combinations of heavy and light chains of versions 1.0 and 1.1 e.g. hu08 v1.0 HC/1.0 LC, hu08 v1.0 HC/v1.1 LC, hu08 v1.1 HC/v1.0 LC, and hu08 v1.1 HC/v1.1 LC, were added to the plate and incubated at room temperature for 1-2 hours. The binding was detected by HRP conjugated goat anti-human Ig Kappa.

[4] = biological target: T1, recombinant human IL-13 receptor alpha …; test: standard ELISA on hIL-13-Rα2 (given as ED50)
[5] = biological target: T1, recombinant human IL-13 receptor alpha …; test: competition ELISA on hIL-13-Rα2, competitor biotinylated ch08
Experimental: The binding properties of the cysteine mutants to hIL-13-Rα2 were evaluated by a standard ELISA and a competition ELISA. […] This conclusion was confirmed by a competition ELISA with biotinylated ch08.

[6] = biological target: T2, cynomolgus monkey IL-13-Rα2 ECD/TM domain with C-terminal Flag tag, on transfected HEK293 cells (cynomolgus monkey, UniProt Q14627 27-363 (human entry)); test: FACS on HEK293 cells transfected with cyno-IL-13-Rα2 (given as ED50)
T2 construct: also called cyno-IL-13-Rα2; cyno IL-13Rα2; not shown: Flag tag at the C-terminal end
T2 chain: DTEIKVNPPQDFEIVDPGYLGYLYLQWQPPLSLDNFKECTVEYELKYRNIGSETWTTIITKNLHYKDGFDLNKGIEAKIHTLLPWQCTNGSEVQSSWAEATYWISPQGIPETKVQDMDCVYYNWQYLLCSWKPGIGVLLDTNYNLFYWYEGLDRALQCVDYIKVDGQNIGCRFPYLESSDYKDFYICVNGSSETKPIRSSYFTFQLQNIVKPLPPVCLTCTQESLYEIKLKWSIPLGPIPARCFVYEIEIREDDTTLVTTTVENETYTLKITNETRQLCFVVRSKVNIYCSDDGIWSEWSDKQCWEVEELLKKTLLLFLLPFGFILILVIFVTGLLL
Experimental: The ECD/TM domain of cyno IL-13-Rα2 fused with Flag tag at the C-terminal end was cloned into the pSMED2 expression vector. HEK293 suspension cells were transiently transfected with cyno-IL-13-Rα2 containing plasmid and pSMED2 vector (as a mock transfection). The cells were harvested 72 hours later and subjected to FACS analysis. 4 antibodies including ch07, ch08, hu08v1.0/1.0 and hu08v1.1/1.1 were tested. The binding on the cell surface cyno-IL-13-Rα2 was detected with R-Phycoerythrin-labeled goat anti-human or mouse IgG.

[7] = biological target: T1, recombinant human IL-13 receptor alpha …; test: SPR Biacore T100, pH 7.4 (column head prints nM; kd/ka gives M); pH 7.4
Experimental: as §1

[8] = biological target: T1, recombinant human IL-13 receptor alpha …; test: competition ELISA on coated recombinant hIL-13-Rα2, competitor biotin-ch08
Experimental: A competition ELISA was performed to assess whether hu08 1.0 and hu08 v1.1 compete with ch08 for IL-13-Rα2 binding. Recombinant hIL-13-Rα2 was coated onto 96-well plates at 50 ul of […] in PBS overnight at 4° C. Plates were then blocked and washed following standard ELISA protocol. A 3-fold serially diluted ch08, hu08 1.0 and hu08 v1.1, and negative control ch07 (2× final concentration) were mixed with biotinylated ch08 (2×EC₅₀). 50 μl of the antibody and biotin-ch08 mixture were added to the plate and incubated for 1 hour at room temperature. The amount of biotin-ch08 bound was detected by HRP conjugated streptavidin.

- koff [1]: 0.000234 s⁻¹
- kon [1]: 52900 M⁻¹ s⁻¹
- koff [2]: 0.000246 s⁻¹
- kon [2]: 97500 M⁻¹ s⁻¹
- EC50 [3]: 0.175 nM
- EC50 [4]: 0.11 nM
- IC50 [5]: 2.01 nM
- EC50 [6]: 1.96 nM
- Kd [7]: 2.52 nM
- IC50 [8]: 2.12 nM
B1: humanized antibody hu08 v1.0 HC/v1.0 LC (antibody, IgG1)
heavy: not shown
light: DIQMTQSPSSLSASVGDRVTITCKASQDVGTAVAWYQQKPGKAPKLLIYSASYRSTGVPSRFSGSGSGTDFTLTISSLQPEDFATYYCQHHYSAPWTFGGGTKVEIKRTVAAPSVFIFPPSDEQLKSGTASVVCLLNNFYPREAKVQWKVDNALQSGNSQESVTEQDSKDSTYSLSSTLTLSKADYEKHKVYACEVTHQGLSSPVTKSFNRGEC
notes: Humanized IgG1/kappa; also called hu08 v1.0/1.0; hu08v1.0/1.0
